Experimental data published in patent publication US20240052052A1.

Key:
[1] = target: human CD24 (human) (UniProt P25063); experiment: FACS, 5637 cells
[2] = target: human CD24 (human) (UniProt P25063); experiment: FACS, MCF7 cells
[3] = target: human CD24 (human) (UniProt P25063); experiment: FACS, A549 cells
[4] = target: human CD24 (human) (UniProt P25063); experiment: FACS, Nalm1 cells
[5] = target: human CD24 (human) (UniProt P25063); experiment: FACS, H1975 cells
[6] = target: human CD24 (human) (UniProt P25063); experiment: FACS, HT-29 cells
[7] = target: human CD24 (human) (UniProt P25063); experiment: FACS, OCI-LY1 cells
[8] = target: human CD24 (human) (UniProt P25063); experiment: FACS, OCI-LY7 cells
[9] = target: human CD24 (human) (UniProt P25063); experiment: FACS, SU-DHL6 cells
[10] = target: human CD24 (human) (UniProt P25063); experiment: FACS, 293F-hCD24 cells
[11] = target: human CD24 (human) (UniProt P25063); experiment: FACS, MDA-MB-468 cells
[12] = target: human CD24 (human) (UniProt P25063); experiment: FACS, CHOK1-hCD24 cells

Chain of human CD24 (human) (P25063 27-59): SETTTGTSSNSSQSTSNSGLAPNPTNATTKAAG

Substance: mIgG ctrl (antibody)
- FACS MFI [1]: 185
- Max MFI [1]: 185
- FACS MFI [2]: 187
- Max MFI [2]: 187
- FACS MFI [3]: 167
- Max MFI [3]: 167
- FACS MFI [4]: 175
- Max MFI [4]: 175
- FACS MFI [5]: 203
- Max MFI [5]: 203
- FACS MFI [6]: 194
- Max MFI [6]: 194
- FACS MFI [7]: 197
- FACS MFI [8]: 186
- FACS MFI [9]: 188
- FACS MFI [10]: 185
- Max MFI [10]: 185
- FACS MFI [11]: 190
- Max MFI [11]: 190
- FACS MFI [12]: 177
- Max MFI [12]: 189
